Experimental data taken from PMC11965310.

Target: Recombinant Human LRP1 cluster III protein, Fc Tag (human) (UniProt Q07954)
Experiment: SPR; LRP1 cluster III-Fc captured on a Protein G chip (1800 RU); tau1N4R as analyte 0.012-1 μM, single-cycle kinetics; HBS-N with 0.005% P20 and 1 mM CaCl2; 1:1 Langmuir model

Sequence of Recombinant Human LRP1 cluster III protein, Fc Tag (human) (Q07954 2522-2940): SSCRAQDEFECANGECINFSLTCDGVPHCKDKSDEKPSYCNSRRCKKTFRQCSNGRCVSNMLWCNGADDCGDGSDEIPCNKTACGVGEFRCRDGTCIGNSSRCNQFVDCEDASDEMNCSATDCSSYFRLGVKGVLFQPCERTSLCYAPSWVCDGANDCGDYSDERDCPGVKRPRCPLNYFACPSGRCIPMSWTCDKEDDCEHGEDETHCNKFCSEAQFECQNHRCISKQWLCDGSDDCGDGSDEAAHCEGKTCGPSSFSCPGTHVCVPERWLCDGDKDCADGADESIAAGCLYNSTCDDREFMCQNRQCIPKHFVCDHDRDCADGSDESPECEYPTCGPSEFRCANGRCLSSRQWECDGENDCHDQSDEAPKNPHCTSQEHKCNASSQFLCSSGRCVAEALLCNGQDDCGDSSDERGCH

Substance: tau1N4R (from UniProt P10636-6 1-383) (natural protein)
- Kd: 91 nM
